Assay results taken from US20240117030A1 (Pfizer, published 2024).
Changes are numbered by the printed parent chain. Read-outs that look alike come from different tables or passages of the source.

Assays:
Assay in all cases: cell-based or functional assay
human IL-13 [1] = biological target: T1, human IL-13 (human, UniProt P35225 35-146)
human IL-13 [2] = biological target: T1, human IL-13; remark: listed apart in the source
recombinant human IL-13 [3] = biological target: recombinant human IL-13 (human, UniProt P35225 35-146)
recombinant human IL-4 [4] = biological target: T2, recombinant human IL-4 (human, UniProt P05112 25-153)
T2 sequence (looked up): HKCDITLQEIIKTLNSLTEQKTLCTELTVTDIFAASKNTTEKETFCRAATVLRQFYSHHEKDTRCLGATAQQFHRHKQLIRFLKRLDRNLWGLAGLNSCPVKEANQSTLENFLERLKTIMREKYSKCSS

recombinant human IL-4 [5] = biological target: T3, recombinant human IL-4 (human, UniProt P05112 25-153); remark: listed apart in the source
T3 sequence (looked up): T2 sequence (looked up)

recombinant human IL-13 [6] = biological target: recombinant human IL-13 (human, UniProt P35225 35-146); remark: listed apart in the source
human IL-33 mm2 Cys = biological target: T4, human IL-33 mm2 Cys (human, UniProt O95760 112-270, limits assumed)
T4 sequence (looked up): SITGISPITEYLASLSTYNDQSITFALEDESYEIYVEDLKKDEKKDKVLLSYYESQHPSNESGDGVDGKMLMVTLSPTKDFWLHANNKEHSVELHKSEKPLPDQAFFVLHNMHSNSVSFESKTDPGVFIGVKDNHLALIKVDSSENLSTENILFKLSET

[7] = biological target: T5, recombinant human IL-33 (R&D Systems 3625-IL), reduced with DTT (human, UniProt O95760 112-270, limits assumed)
T5 sequence (looked up): T4 sequence (looked up) with S97C, S116C, S121C, S148C

T1 sequence (P35225 35-146 limits assumed, form in doubt): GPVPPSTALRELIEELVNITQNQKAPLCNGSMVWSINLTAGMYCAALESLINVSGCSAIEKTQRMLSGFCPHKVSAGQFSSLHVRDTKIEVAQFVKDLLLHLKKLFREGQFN

B1: IL13-1307 (antibody, IgG1, V domains shown)
VH: EVQLVESGGGLVQPGGSLRLSCAASGFTFSSYAMSWVRQAPGKGLEWVASISSGDTTYYPDSVKGRFTISRDNAKNSLYLQMNSLRAEDTAVYYCARLDGYYFGFPYWGQGTLVTVSS
VL: DIQMTQSPSSLSASVGDRVTITCKASESVDHSGSSLMHWYQQKPGKAPKLLIYRASNLESGVPSRFSGSGSGTDFTLTISSLQPEDFATYYCQQSNEDPWTFGGGTKVEIK
CD23: Fold bioactivity relative to IL13-0001 (human IL-13 [1]): 0.03 fold | CD23: Fold bioactivity relative to IL13-1307 (human IL-13 [1]): 1 fold | CD23 IC50 [pM] (human IL-13 [1]): 306 pM | pSTAT6: Fold bioactivity relative to IL13-0001 (human IL-13 [1]): 0.7 fold | pSTAT6: Fold bioactivity relative to IL13-1307 (human IL-13 [1]): 1 fold | pSTAT6 IC50 [pM] (human IL-13 [1]): 140 pM | CD23 IC50 [pM] (human IL-13 [2]): 214 pM | pSTAT6 IC50 [pM] (human IL-13 [2]): 225 pM

B2: IL13-0001 (antibody, human IgG1, kappa, V domains shown)
VH: B1 VH with L98N, D99E, F105L, P106T, Y107L
VL: DIQMTQSPSSLSASVGDRVTITCKASESVDHFGWSLVHWYQQKPGKAPKLLIYRASNLESGVPSRFSGSGSGTDFTLTISSLQPEDFATYYCQQSNEDPWTFGGGTKVEIKR
a-hIL-13 bioassay (IC50, pM) (recombinant human IL-13 [3]): 4.83 pM

B3: IL4-0002 (antibody, human IgG1, kappa)
heavy: EVTLRESGPALVKPTQTLTLTCTFSGFSLSNFGEGLSWIRQPPGKGLEWLAHIYWDDDKRYNPSLKSRLTISKDTSRNQVVLTMTNMDPVDTATYYCARRETVFYWYFDVWGQGTTVTVSSASTKGPSVFPLAPSSKSTSGGTAALGCLVKDYFPEPVTVSWNSGALTSGVHTFPAVLQSSGLYSLSSVVTVPSSSLGTQTYICNVNHKPSNTKVDKKVEPKSCDKTHTCPPCPAPEAAGAPSVFLFPPKPKDTLMISRTPEVTCVVVDVSHEDPEVKFNWYVDGVEVHNAKTKPREEQYNSTYRVVSVLTVLHQDWLNGKEYKCKVSNKALPAPIEKTISKAKGQPREPQVYTLPPSREEMTKNQVSLTCLVKGFYPSDIAVEWESNGQPENNYKTTPPVLDSDGSFFLYSKLTVDKSRWQQGNVFSCSVMHEALHNHYTQKSLSLSPGK
light: DIQMTQSPSSLSASVGDRVTITCKASQSVDEDGDSYMNWYQQKPGKAPKLLIYAASNLESGVPSRFSGSGSGTDFTLTISSLQPEDFATYYCQQSNEDPPTFGGGTKVEIKRTVAAPSVFIFPPSDEQLKSGTASVVCLLNNFYPREAKVQWKVDNALQSGNSQESVTEQDSKDSTYSLSSTLTLSKADYEKHKVYACEVTHQGLSSPVTKSFNRGEC
a-hIL-4 bioassay IC50, pM) (recombinant human IL-4 [4]): 3.42 pM

B4: IL413TSLP-1028 (other)
heavy: not shown
chain 1: DIQMTQSPSSLSASVGDRVTITCKASESVDHFGWSLVHWYQQKPGKAPKLLIYRASNLESGVPSRFSGSGSGTDFTLTISSLQPEDFATYYCQQSNEDPWTFGGGTKVEIKRTVAAPSVFIFPPSDEQLKSGTASVVCLLNNFYPREAKVQWKVDNALQSGNSQESVTEQDSKDSTYSLSSTLTLSKADYEKHKVYACEVTHQGLSSPVTKSFNRGECGGGGSEVTLRESGPALVKPTQTLTLTCTFSGFSLSNFGEGLSWIRQPPGKGLEWLAHIYWDDDKRYNPSLKSRLTISKDTSRNQVVLTMTNMDPVDTATYYCARRETVFYWYFDVWGQGTTVTVSSASTKGPSVFPLAPSSKSTSGGTAALGCLVKDYFPEPVTVSWNSGALTSGVHTFPAVLQSSGLYSLSSVVTVPSSSLGTQTYICNVNHKPSNTKVDKKVEPKSCEKTHTCPPCPAPEAAGAPSVFLFPPKPKDTLMISRTPEVTCVVVDVSHEDPEVKFNWYVDGVEVHNAKTKPREEQYNSTYRVVSVLTVLHQDWLNGKEYKCKVSNKALPAPIEKTISKAKGQPREPQVYTLPPSREEMTKNQVSLTCEVKGFYPSDIAVEWESNGQPENNYKTTPPVLDSDGSFFLYSKLTVDKSRWQQGNVFSCSVLHEALHSHYTQKSLSLSPGK
light 1: SYVLTQPPSVSVAPGQTARITCGGNNLGSKSVHWYQQKPGQAPVLVVYDDSDRPSWIPERFSGSNSGNTATLTISRGEAGDEADYYCQVWDSSSKHVVFGGGTKLTVLGQPKAAPSVTLFPPSSEELQANKATLVCLISDFYPGAVTVAWKADSSPVKAGVETTTPSKQSNNKYAASSYLSLTPEQWKSHRSYSCQVTHEGSTVEKTVAPTECS
light 2: B3 light with K24R, D32E, E97K
chain 2: EVQLVESGGGLVQPGGSLRLSCAASGFTFSSYAMSWVRQAPGKGLEWVASISSGDTTYYPDSVKGRFTISRDNAKNSLYLQMNSLRAEDTAVYYCARNEGYYFGLTLWGQGTLVTVSSASTKGPSVFPLAPSSKSTSGGTAALGCLVKDYFPEPVTVSWNSGALTSGVHTFPAVLQSSGLYSLSSVVTVPSSSLGTQTYICNVNHKPSNTKVDKKVEPKSC
IC50 (median), IL-4 induced CD23 expression on human monocytes (recombinant human IL-4 [5]): 12.8 pM | IC50 (median), IL-13 induced CD23 expression on human monocytes (recombinant human IL-13 [6]): 12.9 pM

B5: IL413TSLP-1037 (other)
heavy: not shown
chain 1: B4 chain 1
light 1: B4 light 1 with S51K, S92K, K95D
light 2: B3 light with K24R, D32E, E97K
chain 2: B4 chain 2
IC50 (median), IL-4 induced CD23 expression on human monocytes (recombinant human IL-4 [5]): 10.5 pM | IC50 (median), IL-13 induced CD23 expression on human monocytes (recombinant human IL-13 [6]): 13.1 pM

B6: IL33-0216 (antibody, human IgG1, kappa, V domains shown)
VH: EVQLVESGGGLVQPGGSLRLSCAASGFTFSSYWMYWVRQAPGKGLEWVAAITPNAGEDYYPESVKGRFTISRDNAKNSLYLQMNSLRAEDTAVYYCARGHYYYTSYSLGYWGQGTLVTVSS
VL: DIQMTQSPSSLSASVGDRVTITCKASQNIDKHLDWYQQKPGKAPKLLIYFTNNLQTGVPSRFSGSGSGTDFTLTISSLQPEDFATYYCFQYNQGWTFGGGTKVEIKR
IC50 [pM] versus human IL-33 mm2 Cys (HEK-Blue SEAP) (human IL-33 mm2 Cys): 237 pM | IC50 [pM] versus human reduced IL-33 (R&D), Experiment 1 (HEK-Blue SEAP) [7]: ~677 pM | IC50 [pM] versus human reduced IL-33 (R&D), Experiment 2 (HEK-Blue SEAP) [7]: ~1240 pM

B7: IL13-1306 (antibody, mouse IgG1, V domains shown)
VH: EVKLVESGGDLVKPGGSLKLSCAASGFTFSSYAMSWVRQSPDKRLEWVASISSGDTTYYPDSVKGRFTISRDNARNILYLQMTSLRSEDTAMYYCARLDGYYFGFPYWGQGTLVTVSA
VL: DTVLTQSPASLAVSLGQRATISCKASESVDHSGSSLMHWYQQKPGQSPKLLIYRASNLESGIPARFSGSGSRTDFTLTINPVEADDVATYYCQQSNEDPWTFGGGTKLEIK
pSTAT6 IC50 [pM] (human IL-13 [2]): 290 pM
